In patent US7122636:
Like-named read-outs stand apart in the source and are kept apart here.

T1: β-TG (UniProt P02775 48-128)
T1 construct: also called b-TG
T1 sequence (looked up): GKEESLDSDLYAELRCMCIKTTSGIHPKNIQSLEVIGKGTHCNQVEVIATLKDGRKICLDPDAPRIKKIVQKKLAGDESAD

T2: PF4 (UniProt P02776 32-101)
T2 construct: also called platelet factor 4
T2 sequence (looked up): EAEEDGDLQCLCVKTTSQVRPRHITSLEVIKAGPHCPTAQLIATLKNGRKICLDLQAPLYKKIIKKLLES

T3: recombinant human IL-8, (ser-IL-8)72 (human, UniProt P10145 28-99)
T3 sequence (looked up): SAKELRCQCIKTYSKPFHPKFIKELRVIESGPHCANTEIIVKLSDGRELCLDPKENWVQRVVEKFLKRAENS


Assays:
β-TG = molecular target: T1, β-TG; experiment: cross reactivity test
PF4 = molecular target: T2, PF4; experiment: cross reactivity test
[1] = molecular target: T3, recombinant human IL-8, (ser-IL-8)72; experiment: cell-based or functional assay
[2] = molecular target: T3, recombinant human IL-8, (ser-IL-8)72; experiment: 125I-IL-8 binding to human neutrophils, competition
[3] = molecular target: T3, recombinant human IL-8, (ser-IL-8)72; experiment: as above; remark: listed apart in the source
[4] = molecular target: T3, recombinant human IL-8, (ser-IL-8)72; experiment: 125I-IL-8 binding to human neutrophils, competition; against the chimeric F(ab)
[5] = molecular target: T3, recombinant human IL-8, (ser-IL-8)72; experiment: 125I-IL-8 binding to human neutrophils, competition; against F(ab)-1

Row | Binder | IC50 [2] [nM] | fold decrease in IL-8 binding [5] [fold] | further results
1 | anti-IL-8 monoclonal antibody 5.12.14 (antibody, mouse IgG2a, V domains shown, mouse IgG2a from hybridoma ATCC HB 11553) VH: EVQLVESGGGLVPPGGSLKLSCAASGFIFSSYGMSWVRQTPGKSLELVATINNNGDSTYYPDSVKGRFTISRDNAKNTLYLQMSSLKSEDTAMFYCARALISSATWFGYWGQGTLVTVSA VL: DIVMTQSQKFMSTSVGDRVSVTCKASQNVGTNVAWYQQKPGQSPKALIYSSSYRYSGVPDRFTGSGSGTDFTLTISHVQSEDLADYFCQQYNIYPLTFGPGTKLELKR | – | – | binding result (β-TG): no binding; binding result (PF4): no binding
2 | 6G4V11N35A Fab (Fab, V domains shown) VH: EVQLVQSGGGLVQPGGSLRLSCAASGYSFSSHYMHWVRQAPGKGLEWVGYIDPSNGETTYNQKFKGRFTLSRDNSKNTAYLQMNSLRAEDTAVYYCARGDYRYNGDWFFDVWGQGTLVTVSS VL: DIQMTQSPSSLSASVGDRVTITCRSSQSLVHGIGATYLHWYQQKPGKAPKLLIYKVSNRFSGVPSRFSGSGSGTDFTLTISSLQPEDFATYYCSQSTHVPLTFGQGTKVEIKR | – | – | IC50, neutrophil chemotaxis [1]: 2.7 nM
3 | humanized 6G425 F(ab)-1 (Fab, V domains shown, Fab with human kappa I and human IgG1 CH1 constant domains; also called version 1; V1) VH: EVQLVESGGGLVQPGGSLRLSCAASGYSFSSHYMHWVRQAPGKGLEWVGYIDPSNGETTYNQKFKGRFTISRDNSKNTLYLQMNSLRAEDTAVYYCAARGDYRYNGDWFFDVWGQGT VL: DIQMTQSPSSLSASVGDRVTITCRSSQSLVHGIGNTYLHWYQQKPGKAPKLLIYYKVSNRFSGVPSRFSGSGSGTDFTLTISSLQPEDFATYYCSQSTHVPLTFGQGTKVEIKR | 63 | – | IC50 [3]: 40 nM; fold reduction in binding affinity [4]: 5.5 fold

Now from value to binder, other results behind:

Row | IC50 [2] [nM] | fold decrease in IL-8 binding [5] [fold] | Binder | further results
4 | 106 | < 2 | humanized 6G425 F(ab)-2 (Fab, V domains shown, template F(ab)-1; also called version 2) VH: EVQLVESGGGLVQPGGSLRLSCAASGYSFSSHYMHWVRQAPGKGLEWVGYIDPSNGETTYNQKFKGRATISRDNSKNTLYLQMNSLRAEDTAVYYCAARGDYRYNGDWFFDVWGQGT VL: DIQMTQSPSSLSASVGDRVTITCRSSQSLVHGIGNTYLHWYQQKPGKAPKLLIYYKVSNRFSGVPSRFSGSGSGTDFTLTISSLQPEDFATYYCSQSTHVPLTFGQGTKVEIKR | –
5 | 79.8 | < 2 | humanized 6G425 F(ab)-3 (Fab, V domains shown, template F(ab)-1; also called version 3) VH: EVQLVESGGGLVQPGGSLRLSCAASGYSFSSHYMHWVRQAPGKGLEWVGYIDPSNGETTYNQKFKGRFTISVDNSKNTLYLQMNSLRAEDTAVYYCAARGDYRYNGDWFFDVWGQGT VL: DIQMTQSPSSLSASVGDRVTITCRSSQSLVHGIGNTYLHWYQQKPGKAPKLLIYYKVSNRFSGVPSRFSGSGSGTDFTLTISSLQPEDFATYYCSQSTHVPLTFGQGTKVEIKR | –
